From publication PMC3854527 come the findings set out here.

In one series the target is T1, Sub2p wt (Saccharomyces cerevisiae, UniProt Q07478 1-446).
T1 sequence: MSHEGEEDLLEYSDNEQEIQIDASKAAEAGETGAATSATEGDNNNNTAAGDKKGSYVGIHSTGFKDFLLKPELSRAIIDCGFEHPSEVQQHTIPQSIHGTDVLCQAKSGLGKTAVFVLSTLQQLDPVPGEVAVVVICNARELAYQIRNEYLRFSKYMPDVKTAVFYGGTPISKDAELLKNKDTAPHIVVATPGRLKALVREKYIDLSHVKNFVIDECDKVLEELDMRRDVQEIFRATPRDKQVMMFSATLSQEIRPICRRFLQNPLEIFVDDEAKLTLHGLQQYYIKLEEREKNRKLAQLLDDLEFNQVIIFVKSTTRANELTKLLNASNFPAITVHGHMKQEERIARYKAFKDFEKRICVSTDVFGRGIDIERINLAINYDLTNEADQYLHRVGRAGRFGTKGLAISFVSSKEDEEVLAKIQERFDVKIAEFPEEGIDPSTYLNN
The series can be described thus: EMSA. For orientation: A gel shift assay detects complexes by their altered migration in electrophoresis.

Another series has as its target T2, Sub2p Y12S (Saccharomyces cerevisiae, UniProt Q07478 1-446, Y12S).
T2 sequence: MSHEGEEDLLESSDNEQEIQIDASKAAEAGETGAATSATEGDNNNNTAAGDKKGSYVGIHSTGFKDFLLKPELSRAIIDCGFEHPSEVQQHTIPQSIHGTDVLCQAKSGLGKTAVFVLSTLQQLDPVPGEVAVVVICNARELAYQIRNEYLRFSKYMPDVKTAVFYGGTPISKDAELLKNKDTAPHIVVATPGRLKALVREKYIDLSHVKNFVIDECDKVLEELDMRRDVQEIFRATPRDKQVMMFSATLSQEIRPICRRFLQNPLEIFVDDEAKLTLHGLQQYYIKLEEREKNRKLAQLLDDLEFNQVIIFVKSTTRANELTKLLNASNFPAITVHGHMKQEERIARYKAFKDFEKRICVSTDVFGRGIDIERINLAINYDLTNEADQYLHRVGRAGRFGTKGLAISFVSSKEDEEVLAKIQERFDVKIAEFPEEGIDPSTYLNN
As to the kind of experiment: EMSA.

On to AGCACCGUAAAGC (ssRNA) [13-mer ssRNA], for which the binding result with Sub2p wt and with Sub2p Y12S was “binds” each time.
